In PMC6249299, “A split luciferase-based probe for quantitative proximal determination of Gαq signalling in live cells” (Scientific Reports, 2018):
Values belong to the binder of their own block, whether it stands above or below them.

Target: T1, CBRN-PLC-β3 fusion protein (phospholipase C-β3 with CBRN at its N-terminus) (UniProt Q01970 1-1234)
T1 construct: phospholipase C-β3 (PLC-β3); also called N-terminally-tagged PLC-β3; PLC-β3 sensor protein; not shown: CBRN (N-terminal fragment of red click-beetle luciferase, amino acids 1-416), N-terminal, kept
T1 sequence (looked up): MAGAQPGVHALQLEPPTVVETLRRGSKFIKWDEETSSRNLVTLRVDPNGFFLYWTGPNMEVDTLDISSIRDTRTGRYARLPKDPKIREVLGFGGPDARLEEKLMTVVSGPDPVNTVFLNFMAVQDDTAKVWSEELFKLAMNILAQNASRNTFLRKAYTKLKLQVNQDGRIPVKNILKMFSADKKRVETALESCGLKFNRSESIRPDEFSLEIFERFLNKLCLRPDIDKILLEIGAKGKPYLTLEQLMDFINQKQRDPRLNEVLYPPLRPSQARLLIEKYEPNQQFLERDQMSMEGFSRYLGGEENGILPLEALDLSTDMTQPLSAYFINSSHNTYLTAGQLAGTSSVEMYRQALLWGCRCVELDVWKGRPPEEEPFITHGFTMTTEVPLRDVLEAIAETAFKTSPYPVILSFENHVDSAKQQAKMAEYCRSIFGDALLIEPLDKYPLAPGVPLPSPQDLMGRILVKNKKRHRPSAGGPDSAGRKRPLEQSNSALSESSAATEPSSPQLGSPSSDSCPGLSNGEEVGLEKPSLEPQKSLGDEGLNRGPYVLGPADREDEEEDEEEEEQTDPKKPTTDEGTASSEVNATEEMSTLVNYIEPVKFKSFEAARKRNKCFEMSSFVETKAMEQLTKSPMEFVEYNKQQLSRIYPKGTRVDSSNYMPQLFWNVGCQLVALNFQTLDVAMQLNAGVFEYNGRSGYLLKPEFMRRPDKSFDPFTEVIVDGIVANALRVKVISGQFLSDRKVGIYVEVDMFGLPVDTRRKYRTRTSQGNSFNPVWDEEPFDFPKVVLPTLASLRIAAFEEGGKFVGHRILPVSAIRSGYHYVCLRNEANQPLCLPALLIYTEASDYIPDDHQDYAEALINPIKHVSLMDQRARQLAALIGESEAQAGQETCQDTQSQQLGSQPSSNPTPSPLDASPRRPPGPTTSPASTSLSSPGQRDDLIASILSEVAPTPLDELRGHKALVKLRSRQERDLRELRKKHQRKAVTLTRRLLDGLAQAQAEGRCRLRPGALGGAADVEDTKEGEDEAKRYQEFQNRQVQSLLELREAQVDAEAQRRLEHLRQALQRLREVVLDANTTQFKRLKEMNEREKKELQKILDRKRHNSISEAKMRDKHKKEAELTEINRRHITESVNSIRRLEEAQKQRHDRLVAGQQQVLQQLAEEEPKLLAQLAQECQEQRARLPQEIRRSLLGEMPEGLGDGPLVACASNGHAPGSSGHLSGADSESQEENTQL
Experiment: split reporter (BiFC, NanoBiT); split click-beetle luciferase complementation in live HEK293T cells expressing the sensor and a GPCR (hH1R; also hM1,3,5R, hNTS1R); D-luciferin added to the cells, L-15 with 5% FCS, 37 °C; stimulated with agonist (histamine)
Settings: partners not purified

S/B ratio (signal-to-background of luminescence): ~5
B1: Gαq(123) fusion protein (CBRC integrated into the Gαq sequence after amino acid 123) (natural protein, UniProt P50148 1-359, looked up)
chain: MTLESIMACCLSEEAKEARRINDEIERQLRRDKRDARRELKLLLLGTGESGKSTFIKQMRIIHGSGYSDEDKRGFTKLVYQNIFTAMQAMIRAMDTLKIPYKYEHNKAHAQLVREVDVEKVSAFENPYVDAIKSLWNDPGIQECYDRRREYQLSDSTKYYLNDLDRVADPAYLPTQQDVLRVRVPTTGIIEYPFDLQSVIFRMVDVGGQRSERRKWIHCFENVTSIMFLVALSEYDQVLVESDNENRMEESKALFRTIITYPWFQNSSVILFLNKKDLLEEKIMYSHLVDYFPEYDGPQRDAQAAREFILKMFVDLNPDSDKIIYSHFTCATDTENIRFVFAAVKDTILQLNLKEYNLV
notes: Gαq (G protein alpha q subunit); also called modified Gαq; Gαq sensor protein

fold lower S/B ratio than the sensor with Gαq(123): ~3 fold
B2: Gαq(97) fusion protein (CBRC integrated into the Gαq sequence after amino acid 97) (natural protein, UniProt P50148 1-359, looked up)
chain: B1 chain
notes: Gαq (G protein alpha q subunit); CBRC inserted after amino acid 97 with flexible Gly/Ser linkers; source: HEK293T, transfected, in cells; not shown: CBRC (C-terminal fragment of red click-beetle luciferase, amino acids 394-542), internal (after residue 97), kept
